These are literature values, as cited in PMC5810417.

pKd, pKi: −log10 of the molar value. Read-outs that look alike come from different tables or passages of the source.

For data set [1], the target named is Prdx6 (Homo sapiens) (UniProt P30041).
The target is the same in data set [2]. As to the kind of experiment: PLA2 activity inhibition.
Data set [3] shares this target. The source holds these as a separate data set.
Data set [4] shares this target. This is another data set of the same source.

In the case of Prdx6 (from UniProt P30041), the pKd with Prdx6 (Homo sapiens) [1] is above 7.70.
Turning to SP-A (from UniProt Q8IWL2), in the data set with Prdx6 (Homo sapiens) [2], the pKi is 6.89.
With p67phox (from UniProt P19878), in the data set with Prdx6 (Homo sapiens) [2], the pKi is 7.19.
As to πGST1-1A and C (from UniProt P09211), the negative logarithm of the Kd (pKd) with Prdx6 (Homo sapiens) [3] was 7.30.
Regarding πGST1-1B and D (from UniProt P09211), the pKd with Prdx6 (Homo sapiens) [4] is 7.00.
